Values joined by “and” are separate entries in the source; they are usually repeats but may differ in a detail not shown here. Identical values can stand only once. Like-named read-outs stand apart in the source and are kept apart here.
Columns and labels:
[1] = target: TRAIL-R2-Fc (human TRAIL-R2 aa 58-184, thrombin site, Fc of human IgG1), wild type (human) (UniProt O14763); assay: SPR; TRAIL-R2-Fc immobilized, UL141 analyte
[2] = target: CD155-Fc (CD155/PVR ectodomain Fc fusion) (human) (UniProt P15151); assay: SPR; CD155-Fc immobilized, UL141 analyte
[3] = target: TRAIL-R1-Fc (human TRAIL-R1/DR4 ectodomain Fc fusion) (human) (UniProt O00220); assay: SPR, steady-state (KDeq); TRAIL-R1-Fc immobilized, UL141 analyte
[4] = target: TRAIL-R2-Fc double mutant L110A/L114A (human) (UniProt O14763); assay: SPR, alanine mutant
[5] = target: TRAIL-R2-Fc mutant D148A (human) (UniProt O14763); assay: SPR; TRAIL-R2-Fc mutant captured on anti-human Fc chip, UL141 analyte
[6] = target: TRAIL-R2-Fc mutant K155A (human) (UniProt O14763); assay: as above
[7] = target: TRAIL-R2-Fc mutant V167A (human) (UniProt O14763); assay: as above
[8] = target: TRAIL-R2-Fc double mutant E78A/D109A (human) (UniProt O14763); assay: as above
[9] = target: TRAIL-R2-Fc mutant R154A (human) (UniProt O14763); assay: as above
[10] = target: TRAIL-R2-Fc triple mutant M152A/R154A/K155A (human) (UniProt O14763); assay: as above
[11] = target: TRAIL-R2-Fc mutant P150A (human) (UniProt O14763); assay: as above
[12] = target: TRAIL-R2-Fc mutant F112A (human) (UniProt O14763); assay: as above
[13] = target: TRAIL-R2-Fc mutant M152A (human) (UniProt O14763); assay: as above
[14] = target: TRAIL-R2-Fc double mutant L110A/L114A (human) (UniProt O14763); assay: as above
[15] = target: TRAIL-R1-Fc (human TRAIL-R1/DR4 ectodomain Fc fusion) (human) (UniProt O00220); assay: SPR, average of KDeq and KD (KDave); TRAIL-R1-Fc immobilized, UL141 analyte
[16] = target: TRAIL-R2-Fc (human TRAIL-R2 aa 58-184, thrombin site, Fc of human IgG1), wild type (human) (UniProt O14763); assay: SPR; TRAIL-R2-Fc captured on anti-human Fc chip, UL141 analyte
[17] = target: TRAIL-R2-Fc mutant D148A (human) (UniProt O14763)
[18] = target: TRAIL-R2-Fc mutant V167A (human) (UniProt O14763)
[19] = target: TRAIL-R2-Fc mutant F112A (human) (UniProt O14763)
[20] = target: TRAIL-R2-Fc double mutant L110A/L114A (human) (UniProt O14763)
[21] = target: TRAIL-R2-Fc (human TRAIL-R2 aa 58-184, thrombin site, Fc of human IgG1), wild type (human) (UniProt O14763); assay: SPR, kinetic 1:1 fit; TRAIL-R2-Fc immobilized, UL141 analyte
[22] = target: TRAIL-R1-Fc (human TRAIL-R1/DR4 ectodomain Fc fusion) (human) (UniProt O00220); assay: SPR, kinetic 1:1 fit; TRAIL-R1-Fc immobilized, UL141 analyte
[23] = target: CD155-Fc (CD155/PVR ectodomain Fc fusion) (human) (UniProt P15151); assay: SPR, kinetic 1:1 fit; CD155-Fc immobilized, UL141 analyte
[24] = target: CD155-Fc (CD155/PVR ectodomain Fc fusion) (human) (UniProt P15151); assay: SPR, KDave; CD155-Fc immobilized, UL141 analyte
[25] = target: TRAIL-R1-Fc (human TRAIL-R1/DR4 ectodomain Fc fusion) (human) (UniProt O00220); assay: SPR; TRAIL-R1-Fc immobilized, UL141 analyte
[26] = target: TRAIL-R2-Fc (human TRAIL-R2 aa 58-184, thrombin site, Fc of human IgG1), wild type (human) (UniProt O14763); assay: SPR, KDave; TRAIL-R2-Fc immobilized, UL141 analyte
[27] = target: CD155-Fc (CD155/PVR ectodomain Fc fusion) (human) (UniProt P15151); assay: SPR; CD155-Fc immobilized, pre-formed UL141-TRAIL-R2 complex analyte
[28] = target: CD155-Fc (CD155/PVR ectodomain Fc fusion) (human) (UniProt P15151)
[29] = target: CD155-Fc (CD155/PVR ectodomain Fc fusion) (human) (UniProt P15151); assay: SPR, KDave; CD155-Fc immobilized, pre-formed UL141-TRAIL-R2 complex analyte
[30] = target: T1, TRAIL-R2 (DR5) ectodomain monomer, aa 58-184, without Fc (human, UniProt O14763 58-184); assay: SPR; UL141-Fc immobilized, TRAIL-R2 analyte
T1 construct: range 58-184; also called monomeric TRAIL-R2; TRAIL-R2 monomer

[31] = target: T1, TRAIL-R2 (DR5) ectodomain monomer, aa …; assay: SPR, average of KDeq and KD (KDave); UL141-Fc immobilized, TRAIL-R2 analyte
[32] = target: T2, mouse TRAIL-R2:Fc (extracellular domain of mouse TRAIL-R2 fused to human IgG constant domain) (mouse; human, UniProt Q9QZM4 53-180; P01857 104-330 = IgG part); assay: ELISA-based assay
T2 construct: extracellular domain;domain: human IgG VH constant domain; also called mTRAIL-R2:Fc

[33] = target: T1, TRAIL-R2 (DR5) ectodomain monomer, aa …; assay: SPR, steady-state (KDeq); UL141-Fc immobilized, TRAIL-R2 analyte
[34] = target: T1, TRAIL-R2 (DR5) ectodomain monomer, aa …; assay: SPR, kinetic 1:1 fit; UL141-Fc immobilized, TRAIL-R2 analyte

Sequence of TRAIL-R2-Fc double mutant E78A/D109A (human) (O14763 other isoform, or with tags, fused parts or gaps E78A D109A E78A D109A limits assumed): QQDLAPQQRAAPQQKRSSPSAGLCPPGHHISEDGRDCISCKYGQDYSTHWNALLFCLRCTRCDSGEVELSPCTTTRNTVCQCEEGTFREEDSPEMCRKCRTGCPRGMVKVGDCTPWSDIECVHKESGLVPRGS
T1 sequence (O14763 58-184 limits assumed): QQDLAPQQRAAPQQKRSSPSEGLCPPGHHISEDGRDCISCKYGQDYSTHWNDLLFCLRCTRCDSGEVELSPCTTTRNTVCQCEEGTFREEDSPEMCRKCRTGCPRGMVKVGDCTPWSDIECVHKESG
Sequence of TRAIL-R2-Fc mutant R154A (human) (O14763 other isoform, or with tags, fused parts or gaps R154A R154A limits assumed): as the sequence (O14763 other isoform, or with tags, fused parts or gaps E78A D109A E78A D109A limits assumed) above, with A21E, A52D, R97A counted along it
Sequence of TRAIL-R2-Fc double mutant L110A/L114A (human) (O14763 other isoform, or with tags, fused parts or gaps L110A L114A L110A L114A limits assumed): as the sequence (O14763 other isoform, or with tags, fused parts or gaps E78A D109A E78A D109A limits assumed) above, with A21E, A52D, L53A, L57A counted along it
Sequence of TRAIL-R2-Fc mutant D148A (human) (O14763 other isoform, or with tags, fused parts or gaps D148A D148A limits assumed): as the sequence (O14763 other isoform, or with tags, fused parts or gaps E78A D109A E78A D109A limits assumed) above, with A21E, A52D, D91A counted along it
Sequence of TRAIL-R2-Fc mutant V167A (human) (O14763 other isoform, or with tags, fused parts or gaps V167A V167A limits assumed): as the sequence (O14763 other isoform, or with tags, fused parts or gaps E78A D109A E78A D109A limits assumed) above, with A21E, A52D, V110A counted along it
Sequence of TRAIL-R2-Fc mutant F112A (human) (O14763 other isoform, or with tags, fused parts or gaps F112A F112A limits assumed): as the sequence (O14763 other isoform, or with tags, fused parts or gaps E78A D109A E78A D109A limits assumed) above, with A21E, A52D, F55A counted along it
Sequence of TRAIL-R2-Fc (human TRAIL-R2 aa 58-184, thrombin site, Fc of human IgG1), wild type (human) (O14763 other isoform, or with tags, fused parts or gaps limits assumed): as the sequence (O14763 other isoform, or with tags, fused parts or gaps E78A D109A E78A D109A limits assumed) above, with A21E, A52D counted along it
Sequence of CD155-Fc (CD155/PVR ectodomain Fc fusion) (human) (P15151 21-343 limits assumed): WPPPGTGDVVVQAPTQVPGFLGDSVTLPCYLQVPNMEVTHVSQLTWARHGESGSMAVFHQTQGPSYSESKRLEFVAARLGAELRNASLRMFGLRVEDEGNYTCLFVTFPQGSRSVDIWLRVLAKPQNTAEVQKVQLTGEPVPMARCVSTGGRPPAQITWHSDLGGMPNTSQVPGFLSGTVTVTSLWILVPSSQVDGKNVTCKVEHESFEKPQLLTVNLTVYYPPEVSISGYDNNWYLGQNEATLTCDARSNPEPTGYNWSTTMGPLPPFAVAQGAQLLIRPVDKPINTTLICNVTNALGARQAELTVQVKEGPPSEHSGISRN
Sequence of TRAIL-R2-Fc mutant M152A (human) (O14763 other isoform, or with tags, fused parts or gaps M152A M152A limits assumed): as the sequence (O14763 other isoform, or with tags, fused parts or gaps E78A D109A E78A D109A limits assumed) above, with A21E, A52D, M95A counted along it
Sequence of TRAIL-R2-Fc mutant K155A (human) (O14763 other isoform, or with tags, fused parts or gaps K155A K155A limits assumed): as the sequence (O14763 other isoform, or with tags, fused parts or gaps E78A D109A E78A D109A limits assumed) above, with A21E, A52D, K98A counted along it
Sequence of TRAIL-R2-Fc triple mutant M152A/R154A/K155A (human) (O14763 other isoform, or with tags, fused parts or gaps M152A R154A K155A M152A R154A K155A limits assumed): as the sequence (O14763 other isoform, or with tags, fused parts or gaps E78A D109A E78A D109A limits assumed) above, with A21E, A52D, M95A, R97A, K98A counted along it
Sequence of TRAIL-R2-Fc mutant P150A (human) (O14763 other isoform, or with tags, fused parts or gaps P150A P150A limits assumed): as the sequence (O14763 other isoform, or with tags, fused parts or gaps E78A D109A E78A D109A limits assumed) above, with A21E, A52D, P93A counted along it
Sequence of TRAIL-R1-Fc (human TRAIL-R1/DR4 ectodomain Fc fusion) (human) (O00220 24-239): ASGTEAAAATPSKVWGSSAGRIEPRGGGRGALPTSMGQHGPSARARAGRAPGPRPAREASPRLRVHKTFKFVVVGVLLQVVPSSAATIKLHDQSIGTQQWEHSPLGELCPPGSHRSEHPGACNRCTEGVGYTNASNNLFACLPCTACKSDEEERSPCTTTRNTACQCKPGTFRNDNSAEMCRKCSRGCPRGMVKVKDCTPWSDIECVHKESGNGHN
T2 sequence (Q9QZM4 other isoform, or with tags, fused parts or gaps limits assumed): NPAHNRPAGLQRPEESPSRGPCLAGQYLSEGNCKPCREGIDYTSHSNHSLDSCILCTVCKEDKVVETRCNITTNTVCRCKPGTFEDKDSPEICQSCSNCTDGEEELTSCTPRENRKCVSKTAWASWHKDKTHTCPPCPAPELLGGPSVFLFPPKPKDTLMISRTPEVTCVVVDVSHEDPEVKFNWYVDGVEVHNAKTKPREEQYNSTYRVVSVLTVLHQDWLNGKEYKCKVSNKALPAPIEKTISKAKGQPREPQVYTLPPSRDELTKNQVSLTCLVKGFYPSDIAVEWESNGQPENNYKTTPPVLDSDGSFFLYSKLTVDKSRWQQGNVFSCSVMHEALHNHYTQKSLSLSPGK

With “UL141 ectodomain (HCMV FIX strain) with C-terminal poly-histidine tag (ligand)” as the molecule, how does the koff [1] read?
Its koff is 7.21e-05 s⁻¹.

And the kon [1]?
Its kon is 12100 M⁻¹ s⁻¹.

What about the koff [2] of the same molecule?
Its koff is 0.000346 s⁻¹.

And the kon [2]?
Its kon is 176000 M⁻¹ s⁻¹.

And the Kd [3]?
Its Kd is 2.27 nM.

What about the fold decrease in binding affinity against wild-type [4] of the same molecule?
Its fold decrease in binding affinity against wild-type is 7 fold.

And the Kd [5]?
The Kd was 55.3 nM.

What about the fold lower binding than wild-type [5] of the same molecule?
Its fold lower binding than wild-type is 10 fold.

And the koff [5]?
The koff was 0.0013 s⁻¹.

What about the kon [5] of the same molecule?
Its kon is 23500 M⁻¹ s⁻¹.

What about the Kd [6] of the same molecule?
The Kd was 7.74 nM.

And the koff [6]?
The koff was 0.00038 s⁻¹.

And the kon [6]?
Its kon is 49100 M⁻¹ s⁻¹.

What about the Kd [7] of the same molecule?
The Kd was 15.5 nM.

What about the fold lower binding than wild-type [7] of the same molecule?
The fold lower binding than wild-type was 2.5 fold.

And the koff [7]?
The koff was 0.00048 s⁻¹.

And the kon [7]?
Its kon is 31000 M⁻¹ s⁻¹.

What about the Kd [8] of the same molecule?
Its Kd is 60.4 nM.

And the fold lower binding than wild-type [8]?
The fold lower binding than wild-type was 10 fold.

And the koff [8]?
The koff was 0.00151 s⁻¹.

What about the kon [8] of the same molecule?
Its kon is 25000 M⁻¹ s⁻¹.

What about the Kd [9] of the same molecule?
The Kd was 6.26 nM.

And the koff [9]?
The koff was 0.000243 s⁻¹.

And the kon [9]?
Its kon is 38800 M⁻¹ s⁻¹.

And the Kd [10]?
The Kd was 7.39 nM.

And the koff [10]?
Its koff is 0.00027 s⁻¹.

What about the kon [10] of the same molecule?
The kon was 36500 M⁻¹ s⁻¹.

And the Kd [11]?
Its Kd is 8.32 nM.

What about the koff [11] of the same molecule?
The koff was 0.000391 s⁻¹.

And the kon [11]?
Its kon is 47000 M⁻¹ s⁻¹.

What about the Kd [12] of the same molecule?
Its Kd is 630 nM.

What about the fold lower binding than wild-type [12] of the same molecule?
Its fold lower binding than wild-type is 100 fold.

And the koff [12]?
The koff was 0.00566 s⁻¹.

And the kon [12]?
The kon was 8980 M⁻¹ s⁻¹.

What about the Kd [13] of the same molecule?
Its Kd is 7.49 nM.

What about the koff [13] of the same molecule?
Its koff is 0.000382 s⁻¹.

What about the kon [13] of the same molecule?
The kon was 51000 M⁻¹ s⁻¹.

And the Kd [14]?
Its Kd is 42.7 nM.

What about the fold lower binding than wild-type [14] of the same molecule?
The fold lower binding than wild-type was 10 fold.

And the koff [14]?
Its koff is 0.00064 s⁻¹.

And the kon [14]?
Its kon is 15000 M⁻¹ s⁻¹.

And the Kd [15]?
The Kd was 2300 nM.

What about the Kd [16] of the same molecule?
The Kd was 6 nM and 5.95 nM.

And the koff [16]?
The koff was 7.21e-05 s⁻¹.

And the kon [16]?
The kon was 12100 M⁻¹ s⁻¹.

What about the x-fold reduction in binding compared to wild type [17] of the same molecule?
Its x-fold reduction in binding compared to wild type is 9.2 fold.

What about the x-fold reduction in binding compared to wild type [18] of the same molecule?
Its x-fold reduction in binding compared to wild type is 2.6 fold.

What about the x-fold reduction in binding compared to wild type [19] of the same molecule?
The x-fold reduction in binding compared to wild type was 106 fold.

What about the x-fold reduction in binding compared to wild type [20] of the same molecule?
The x-fold reduction in binding compared to wild type was 7.2 fold.

And the Kd [21]?
Its Kd is 5.96 nM.

What about the Kd [22] of the same molecule?
Its Kd is 2330 nM.

What about the Kd [23] of the same molecule?
The Kd was 1.97 nM.

What about the Kd [24] of the same molecule?
Its Kd is 2 nM.

And the koff [25]?
The koff was 0.014 s⁻¹.

And the kon [25]?
Its kon is 6020 M⁻¹ s⁻¹.

What about the Kd [26] of the same molecule?
The Kd was 6 nM.

“pre-formed UL141-TRAIL-R2 protein complex (from UniProt O14763 58-184)” was tested. Which koff [27] did it give?
Its koff is 0.000333 s⁻¹.

And the kon [27]?
The kon was 152000 M⁻¹ s⁻¹.

What about the Kd [28] of the same molecule?
The Kd was 2.19 nM.

What about the Kd [29] of the same molecule?
Its Kd is 2 nM.

B1: UL141-Fc (UL141 ectodomain fused to the Fc region of human IgG1) (Fc fusion)
chain: DIAEKMWAENYETTSPAPVLVAEGEQVTIPCTVMTHSWPMVSIRARFCRSHDGSDELILDAVKGHRLMNGLQYRLPYATWNFSQLHLGQIFSLTFNVSTDTAGMYECVLRNYSHGLIMQRFVILTQLETLSRPDEPCCTPALGRYSLGDQIWSPTPWRLRNHDCGMYRGFQRNYFYIGRADAEDCWKPACPDEEPDRCWTVIQRYRLPGDCYRSQPHPPKFLPVTPAPPADIDTGMS
With B1 as the molecule, how does the koff [30] read?
Its koff is 0.00564 s⁻¹.

And the kon [30]?
The kon was 264000 M⁻¹ s⁻¹.

What about the Kd [31] of the same molecule?
The Kd was 20 nM.

Does B1 bind [32]?
Result: no binding

And the Kd [33]?
Its Kd is 19.8 nM.

What about the Kd [34] of the same molecule?
The Kd was 21.4 nM.

Source: US20140134647A1 (LA JOLLA INSTITUTE FOR ALLERGY AND IMMUNOLOGY, published 2014)
